# Experiments:
# [1] = target: Epidermal growth factor receptor I (EGFR) (human) (UniProt P00533); assay: flow cytometry on MDA-MB-468 cells
# [2] = target: Epidermal growth factor receptor I (EGFR) (human) (UniProt P00533); assay: flow cytometry saturation binding on EGFR positive cells
# [3] = target: Epidermal growth factor receptor I (EGFR) (human) (UniProt P00533); assay: competitive radioligand binding on MDA-MB-468 cells; pre-blocking with 100-fold excess unlabeled 8709-scFv-Fc, tracer ^225Ac-8709-scFv-Fc at 50 nM
# [4] = target: T1, Epidermal growth factor receptor I (EGFR) (human, UniProt P00533 25-1210); assay: flow cytometry on MDA-MB-468 cells
# T1 construct: whole, on cells; MDA-MB-231 cells also carry EphA2; also called ErbB-1; HER1
# Protocol: (§1) Binding profile of immunoconjugates to MDA-MB468 (high EGFR expression) and MDA-MB-435 (EGFR negative) was studied using flow cytometry. […] A saturation binding curve was performed to determine the binding constants KD at which immunoconjugates bind to the cell.
# (§2) In vitro binding to target receptor (e.g. EGFR) positive cells was performed for all immunoconjugates and compared with corresponding unconjugated antibody, and control IgG. […] Target antibodies, control IgG and their respective ADCs were titrated at a minimum of a 10-fold excess onto 1×10⁵ cells. The cell-compound reactions were incubated for 30 minutes at room temperature followed by 15 minutes on ice. Cells were washed and resuspended in a 1:50 dilution of PE or FITC labeled Goat F(ab′)2 fragment anti-human IgG (H+L) antibody (Beckman Coulter, IM0839) and incubated for 30 minutes on ice in the dark. Cells were washed and suspended in 2% FBS-PBS. Data was acquired using a Beckman Coulter Gallios flow cytometer and the results were analysed using FlowJoV10. The binding constant KD for each conjugate were generated using a non-linear regression curve fit with GraphPad prism 6.
# [5] = target: T1, Epidermal growth factor receptor I …; assay: flow cytometry saturation binding on EGFR positive cells
# Protocol: as §1, §2
# [6] = target: T1, Epidermal growth factor receptor I …; assay: flow cytometry saturation binding on MDA-MB-468 cells
# Protocol: as §1, §2
# [7] = target: T1, Epidermal growth factor receptor I …; assay: saturation radioligand binding assay on MDA-MB-468 cells
binder,measurement,setting,value
"8709-scFv-Fc (Fc fusion, part only; not given: Linker, domain order, hinge and Fc, not shown: another chain or arm of the molecule; a dimerising Fc or GST; small tags and cut ends) VH: EVQLVESGGGLVQPGGSLRLSCAASGFNLYSSSMHWVRQAPGKGLEWVASIYPYSGYTYYADSVKGRFTISADTSKNTAYLQMNSLRAEDTAVYYCARYPFGVSAYYAMDYWGQGTLVTVSS VL: DIQMTQSPSSLSASVGDRVTITCRASQSVSSAVAWYQQKPGKAPKLLIYSASSLYSGVPSRFSGSRSGTDFTLTISSLQPEDFATYYCQQSYWLITFGQGTKVEIK",% binding,[1],> 90%
same,Kd,[2],1.1 nM
same,fold reduction in the binding of ^225Ac-8709-scFv-Fc to EGFR,[3],23.2 fold
"8709-scFv-Fc-PEG6-DM1 (Fc fusion, PEG6-DM1 conjugated via NHS (drug to antibody ratio 3.5), sites not stated) VH: EVQLVESGGGLVQPGGSLRLSCAASGFNLYSSSMHWVRQAPGKGLEWVASIYPYSGYTYYADSVKGRFTISADTSKNTAYLQMNSLRAEDTAVYYCARYPFGVSAYYAMDYWGQGTLVTVSS VL: DIQMTQSPSSLSASVGDRVTITCRASQSVSSAVAWYQQKPGKAPKLLIYSASSLYSGVPSRFSGSRSGTDFTLTISSLQPEDFATYYCQQSYWLITFGQGTKVEIKR",% binding,[4],> 90%
same,Kd,[5],4.2 nM
"Macropa-8709-scFv-Fc (Fc fusion, macropa chelator conjugated via macropa-NCS, sites not stated) VH: EVQLVESGGGLVQPGGSLRLSCAASGFNLYSSSMHWVRQAPGKGLEWVASIYPYSGYTYYADSVKGRFTISADTSKNTAYLQMNSLRAEDTAVYYCARYPFGVSAYYAMDYWGQGTLVTVSS VL: DIQMTQSPSSLSASVGDRVTITCRASQSVSSAVAWYQQKPGKAPKLLIYSASSLYSGVPSRFSGSRSGTDFTLTISSLQPEDFATYYCQQSYWLITFGQGTKVEIKR",fold higher KD value as compared to 8709-scFv-Fc,[6],10.4 fold
same,Kd,[5],11.3 nM
"^225Ac-8709-scFv-Fc (Fc fusion, macropa chelator with ^225Ac, sites not stated) VH: EVQLVESGGGLVQPGGSLRLSCAASGFNLYSSSMHWVRQAPGKGLEWVASIYPYSGYTYYADSVKGRFTISADTSKNTAYLQMNSLRAEDTAVYYCARYPFGVSAYYAMDYWGQGTLVTVSS VL: DIQMTQSPSSLSASVGDRVTITCRASQSVSSAVAWYQQKPGKAPKLLIYSASSLYSGVPSRFSGSRSGTDFTLTISSLQPEDFATYYCQQSYWLITFGQGTKVEIKR",Kd,[7],14.5 nM

# Reference: US20250127943A1 (published 2025)
